Data published in article PMC10126257, “Genome resequencing and transcriptome analysis reveal the molecular mechanism of albinism in Cordyceps militaris”.

T1: CmWC-1 (white collar-1) (Cordyceps militaris, UniProt G3J3J5 1-963)
T1 sequence: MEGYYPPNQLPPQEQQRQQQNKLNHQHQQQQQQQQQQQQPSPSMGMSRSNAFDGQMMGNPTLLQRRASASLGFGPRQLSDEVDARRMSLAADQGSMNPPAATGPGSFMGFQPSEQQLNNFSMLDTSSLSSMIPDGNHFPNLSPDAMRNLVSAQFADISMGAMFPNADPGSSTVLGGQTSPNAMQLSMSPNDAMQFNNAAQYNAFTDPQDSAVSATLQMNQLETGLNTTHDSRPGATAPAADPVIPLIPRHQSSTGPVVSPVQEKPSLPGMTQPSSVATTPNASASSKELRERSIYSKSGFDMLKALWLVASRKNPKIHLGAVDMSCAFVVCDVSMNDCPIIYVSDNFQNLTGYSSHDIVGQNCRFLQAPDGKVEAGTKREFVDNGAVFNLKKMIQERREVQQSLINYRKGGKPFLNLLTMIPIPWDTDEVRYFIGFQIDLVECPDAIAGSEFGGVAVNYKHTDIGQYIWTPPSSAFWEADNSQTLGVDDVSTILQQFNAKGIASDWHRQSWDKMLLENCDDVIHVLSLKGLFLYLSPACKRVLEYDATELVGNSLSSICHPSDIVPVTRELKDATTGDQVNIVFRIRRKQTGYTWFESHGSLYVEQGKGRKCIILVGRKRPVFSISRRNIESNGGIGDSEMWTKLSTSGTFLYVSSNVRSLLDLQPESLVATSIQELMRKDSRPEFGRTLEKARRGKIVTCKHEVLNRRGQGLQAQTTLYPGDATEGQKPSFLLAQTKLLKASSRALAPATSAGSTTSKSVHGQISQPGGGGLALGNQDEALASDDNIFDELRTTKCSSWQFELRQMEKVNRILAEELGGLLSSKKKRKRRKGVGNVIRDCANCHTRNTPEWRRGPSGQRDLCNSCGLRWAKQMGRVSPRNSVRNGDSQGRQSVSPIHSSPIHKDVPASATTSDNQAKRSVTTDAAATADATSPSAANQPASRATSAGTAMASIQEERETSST

T2: CmWC-3 (zinc-finger domain-containing protein, GATA-type) (Cordyceps militaris, UniProt G3J672 1-188)
T2 sequence: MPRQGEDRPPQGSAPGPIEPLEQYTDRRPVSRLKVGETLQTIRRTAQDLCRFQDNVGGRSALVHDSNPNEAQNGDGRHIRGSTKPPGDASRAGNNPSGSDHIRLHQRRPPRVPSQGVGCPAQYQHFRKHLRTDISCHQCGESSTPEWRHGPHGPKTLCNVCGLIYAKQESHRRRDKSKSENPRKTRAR


What was measured:
CmWC-1 (white collar-1) = biological target: T1, CmWC-1 (white collar-1); experiment: EMSA; LightShift EMSA Kit (Thermo 20148); cold competitor 50x; proteins recovered in 1x PBS; binding buffer, salt, pH and temperature not stated; settings: protein: recombinant; tags: His (pCOLD I); label: biotin on both strands (5'); blunt
[1] = biological target: T2, CmWC-3 (zinc-finger domain-containing …); experiment: as above; settings: protein: recombinant; tags: GST (pGEX-6P-1); label: biotin on both strands (5'); blunt

Binder	binding result (CmWC-1 (white collar-1))	binding result [1]
CmPKS promoter P2 probe (dsDNA) DNA 1: CGCAGCTGAGGGTATTGATAGCCGTGATCGAACCC DNA 2: GGGTTCGATCACGGCTATCAATACCCTCAGCTGCG	no binding	binds
CmPKS promoter P1 probe (dsDNA) DNA 1: TCATATGATTGTTGATAAATATGTTTTCCCAGTGA DNA 2: TCACTGGGAAAACATATTTATCAACAATCATATGA	no binding	binds
